Numbering of substitutions follows the chain as printed.
Columns and labels:
[1] = molecular target: M44-modified P NTAA target peptides; assay: encoding assay; P2 D;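 also: fraction of recording tags encoded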
[2] = molecular target: M44-modified D NTAA target peptides; assay: encoding assay; P2 D;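 also: fraction of recording tags encoded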
[3] = molecular target: M44-modified T NTAA target peptides; assay: encoding assay; P2 D;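 also: fraction of recording tags encoded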
[4] = molecular target: M44-modified V NTAA target peptides; assay: encoding assay; P2 D;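 also: fraction of recording tags encoded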
[5] = molecular target: M44-modified E NTAA target peptides; assay: encoding assay; P2 D;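 also: fraction of recording tags encoded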
[6] = molecular target: M44-modified P NTAA target peptides; assay: encoding assay; P2 P;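 also: fraction of recording tags encoded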
[7] = molecular target: M44-modified T NTAA target peptides; assay: encoding assay; P2 P;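 also: fraction of recording tags encoded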
[8] = molecular target: M44-modified W NTAA target peptides; assay: encoding assay; P2 P;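 also: fraction of recording tags encoded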
[9] = molecular target: M44-modified V NTAA target peptides; assay: encoding assay; P2 P;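 also: fraction of recording tags encoded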
[10] = molecular target: M44-modified G NTAA target peptides (M44-G-P2-peptide); assay: encoding assay; P2 P;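 also: fraction of recording tags encoded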
[11] = molecular target: M44-modified P NTAA target peptides; assay: encoding assay; P2 G;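 also: fraction of recording tags encoded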
[12] = molecular target: M44-modified D NTAA target peptides; assay: encoding assay; P2 G;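 also: fraction of recording tags encoded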
[13] = molecular target: M44-modified H NTAA target peptides; assay: encoding assay; P2 G;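 also: fraction of recording tags encoded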
[14] = molecular target: M44-modified A NTAA target peptides (M44-A-P2-peptide); assay: encoding assay; P2 G;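 also: fraction of recording tags encoded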
[15] = molecular target: M44-modified N NTAA target peptides; assay: encoding assay; P2 G
[16] = molecular target: M44-modified S NTAA target peptides; assay: encoding assay; P2 G
[17] = molecular target: M17-modified D NTAA target peptides; assay: encoding assay; P2 D;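 also: fraction of recording tags encoded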
[18] = molecular target: M17-modified E NTAA target peptides; assay: encoding assay; P2 D;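 also: fraction of recording tags encoded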
[19] = molecular target: M17-modified P NTAA target peptides; assay: encoding assay; P2 D;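 also: fraction of recording tags encoded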
[20] = molecular target: M17-modified Y NTAA target peptides (M17-Y-P2-peptide); assay: encoding assay; P2 D;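 also: fraction of recording tags encoded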
[21] = molecular target: M17-modified G NTAA target peptides; assay: encoding assay; P2 D;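 also: fraction of recording tags encoded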
[22] = molecular target: M17-modified Q NTAA target peptides; assay: encoding assay; P2 D;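 also: fraction of recording tags encoded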
[23] = molecular target: M17-modified N NTAA target peptides; assay: encoding assay; P2 D;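 also: fraction of recording tags encoded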
[24] = molecular target: M17-modified F NTAA target peptides; assay: encoding assay; P2 D;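 also: fraction of recording tags encoded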
[25] = molecular target: M17-modified A NTAA target peptides; assay: encoding assay; P2 D;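 also: fraction of recording tags encoded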
[26] = molecular target: M17-modified T NTAA target peptides; assay: encoding assay; P2 P;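 also: fraction of recording tags encoded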
[27] = molecular target: M17-modified L NTAA target peptides; assay: encoding assay; P2 P;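 also: fraction of recording tags encoded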
[28] = molecular target: M17-modified I NTAA target peptides; assay: encoding assay; P2 P;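 also: fraction of recording tags encoded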
[29] = molecular target: M17-modified S NTAA target peptides; assay: encoding assay; P2 P;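 also: fraction of recording tags encoded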
[30] = molecular target: M17-modified D NTAA target peptides; assay: encoding assay; P2 P;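 also: fraction of recording tags encoded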
[31] = molecular target: M17-modified V NTAA target peptides; assay: encoding assay; P2 P;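 also: fraction of recording tags encoded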
[32] = molecular target: M17-modified G NTAA target peptides; assay: encoding assay; P2 P;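 also: fraction of recording tags encoded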
[33] = molecular target: M17-modified M NTAA target peptides; assay: encoding assay; P2 P;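 also: fraction of recording tags encoded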
[34] = molecular target: M17-modified Q NTAA target peptides; assay: encoding assay; P2 P;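 also: fraction of recording tags encoded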
[35] = molecular target: M17-modified N NTAA target peptides; assay: encoding assay; P2 P;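 also: fraction of recording tags encoded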
[36] = molecular target: M17-modified W NTAA target peptides; assay: encoding assay; P2 P;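 also: fraction of recording tags encoded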
[37] = molecular target: M17-modified F NTAA target peptides; assay: encoding assay; P2 P;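 also: fraction of recording tags encoded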
[38] = molecular target: M17-modified A NTAA target peptides; assay: encoding assay; P2 P;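 also: fraction of recording tags encoded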
[39] = molecular target: M17-modified T NTAA target peptides; assay: encoding assay; P2 G;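 also: fraction of recording tags encoded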
[40] = molecular target: M17-modified L NTAA target peptides; assay: encoding assay; P2 G;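 also: fraction of recording tags encoded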
[41] = molecular target: M17-modified I NTAA target peptides; assay: encoding assay; P2 G;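 also: fraction of recording tags encoded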
[42] = molecular target: M17-modified H NTAA target peptides; assay: encoding assay; P2 G;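 also: fraction of recording tags encoded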
[43] = molecular target: M17-modified S NTAA target peptides; assay: encoding assay; P2 G;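 also: fraction of recording tags encoded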
[44] = molecular target: M17-modified D NTAA target peptides; assay: encoding assay; P2 G;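 also: fraction of recording tags encoded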
[45] = molecular target: M17-modified E NTAA target peptides; assay: encoding assay; P2 G;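 also: fraction of recording tags encoded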
[46] = molecular target: M17-modified P NTAA target peptides; assay: encoding assay; P2 G;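 also: fraction of recording tags encoded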
[47] = molecular target: M17-modified Y NTAA target peptides (M17-Y-P2-peptide); assay: encoding assay; P2 G;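 also: fraction of recording tags encoded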
[48] = molecular target: M17-modified V NTAA target peptides; assay: encoding assay; P2 G;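 also: fraction of recording tags encoded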
[49] = molecular target: M17-modified G NTAA target peptides; assay: encoding assay; P2 G;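 also: fraction of recording tags encoded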
[50] = molecular target: M17-modified M NTAA target peptides; assay: encoding assay; P2 G;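 also: fraction of recording tags encoded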
[51] = molecular target: M17-modified Q NTAA target peptides; assay: encoding assay; P2 G;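 also: fraction of recording tags encoded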
[52] = molecular target: M17-modified N NTAA target peptides; assay: encoding assay; P2 G;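 also: fraction of recording tags encoded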
[53] = molecular target: M17-modified F NTAA target peptides; assay: encoding assay; P2 G;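 also: fraction of recording tags encoded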
[54] = molecular target: M17-modified A NTAA target peptides; assay: encoding assay; P2 G;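 also: fraction of recording tags encoded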

B1: engineered M44-L binder (SEQ ID NO: 31) (designed binder, not shown: small tags and cut ends; large carriers)
chain: QDSTQNLIPAPPLISVPLQPGFWTERFQGRWFLVGFAGNAVQKERQSRLTMQSLILELQEDNSYNITAINVRGQGCRYIISTLVPSSRPGQFTLGNIHSYPQIQSLDVQVADTDYDQFAMVFLQGTSENKQYFEVALAGRTKGLSDELKERFVSFAKSLGLKDNNIVFSVPTDQCIDN
- encoding yield [1]: 0.01
- encoding yield [2]: 0.01
- encoding yield [3]: 0.01
- encoding yield [4]: 0.03
- encoding yield [5]: 0.01
- encoding yield [6]: 0.01
- encoding yield [7]: 0.01
- encoding yield [8]: 0.04
- encoding yield [9]: 0.02
- encoding yield [10]: 0.01
- encoding yield [11]: 0.02
- encoding yield [12]: 0.01
- encoding yield [13]: 0.02
- encoding yield [14]: 0.01
- encoding yield [15]: 0.01
- encoding yield [16]: 0.01

B2: engineered M17-Y binder (SEQ ID NO: 61) (designed binder, not shown: small tags and cut ends; large carriers)
chain: TVPDRSEIAGKWYVVALASNTEFYLREKDWVKSAMARISFLGEDELKVSSAVPSPNGCYKVERTWKKTSDDGEVYNSRAAKLKVEVLDTDYKSYAVIYATRVKDGRTDHQMILYSRSPEVSPAATAIFRKLAGERNYTDEMVAMLPRQEECTVDEV
- encoding yield [17]: 0.01
- encoding yield [18]: 0.02
- encoding yield [19]: 0.01
- encoding yield [20]: 0.05
- encoding yield [21]: 0.03
- encoding yield [22]: 0.01
- encoding yield [23]: 0.02
- encoding yield [24]: 0.04
- encoding yield [25]: 0.02
- encoding yield [26]: 0.01
- encoding yield [27]: 0.05
- encoding yield [28]: 0.06
- encoding yield [29]: 0.02
- encoding yield [30]: 0.02
- encoding yield [31]: 0.02
- encoding yield [32]: 0.01
- encoding yield [33]: 0.03
- encoding yield [34]: 0.02
- encoding yield [35]: 0.01
- encoding yield [36]: 0.02
- encoding yield [37]: 0.12
- encoding yield [38]: 0.02
- encoding yield [39]: 0.03
- encoding yield [40]: 0.02
- encoding yield [41]: 0.03
- encoding yield [42]: 0.03
- encoding yield [43]: 0.01
- encoding yield [44]: 0.01
- encoding yield [45]: 0.02
- encoding yield [46]: 0.01
- encoding yield [47]: 0.11
- encoding yield [48]: 0.02
- encoding yield [49]: 0.01
- encoding yield [50]: 0.01
- encoding yield [51]: 0.02
- encoding yield [52]: 0.01
- encoding yield [53]: 0.06
- encoding yield [54]: 0.01

B3: upgraded binder after additional maturation round (SEQ ID NO: 62) (designed binder, not shown: small tags and cut ends; large carriers)
chain: B2 chain with E27G, W30R, A36V, L41Q, G105R, E119D
- encoding yield [17]: 0.02
- encoding yield [18]: 0.02
- encoding yield [19]: 0.02
- encoding yield [20]: 0.1
- encoding yield [21]: 0.03
- encoding yield [22]: 0.02
- encoding yield [23]: 0.03
- encoding yield [24]: 0.05
- encoding yield [25]: 0.03
- encoding yield [26]: 0.02
- encoding yield [27]: 0.08
- encoding yield [28]: 0.07
- encoding yield [29]: 0.04
- encoding yield [30]: 0.03
- encoding yield [31]: 0.03
- encoding yield [32]: 0.02
- encoding yield [33]: 0.03
- encoding yield [34]: 0.02
- encoding yield [35]: 0.02
- encoding yield [36]: 0.11
- encoding yield [37]: 0.12
- encoding yield [38]: 0.02
- encoding yield [39]: 0.05
- encoding yield [40]: 0.03
- encoding yield [41]: 0.05
- encoding yield [42]: 0.03
- encoding yield [43]: 0.01
- encoding yield [44]: 0.02
- encoding yield [45]: 0.02
- encoding yield [46]: 0.02
- encoding yield [47]: 0.18
- encoding yield [48]: 0.03
- encoding yield [49]: 0.01
- encoding yield [50]: 0.02
- encoding yield [51]: 0.02
- encoding yield [52]: 0.01
- encoding yield [53]: 0.11
- encoding yield [54]: 0.02

B4: engineered M44-A binder (SEQ ID NO: 42) (designed binder, not shown: small tags and cut ends; large carriers)
chain: QVSVQPNFQQDKFLGRWFVAGLASNSSWDREKVAALSGAKMVVAPATDGGLNVTRTMLRKNQCETYTGLLQPAGSLGSYSWRSPHPGSTGSESVVETDYDQYALVYGQGSKGPGEDLRAAALWSRTQTPRAELKEKFTAFSKAQGFTEDTIVFLPQTDKCMTEQ
- encoding yield [1]: 0.01
- encoding yield [2]: 0.02
- encoding yield [3]: 0.01
- encoding yield [4]: 0.03
- encoding yield [5]: 0.01
- encoding yield [6]: 0.01
- encoding yield [7]: 0.01
- encoding yield [8]: 0.01
- encoding yield [9]: 0.01
- encoding yield [10]: 0.01
- encoding yield [11]: 0.02
- encoding yield [12]: 0.01
- encoding yield [13]: 0.02
- encoding yield [14]: 0.07
- encoding yield [15]: 0.01
- encoding yield [16]: 0.01
